# According to US20250154240A1 (CHIOME BIOSCIENCE, published 2025):
# Positions count from the first letter of the chain named.
# T1: human CXCL1 protein (human, UniProt P09341 35-107)
# T1 construct: also called HuCXCL1
# T1 sequence: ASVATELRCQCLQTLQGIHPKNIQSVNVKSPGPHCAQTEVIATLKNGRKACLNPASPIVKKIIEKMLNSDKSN
# B1: Hu1A-7H10 VH1/VL1 (antibody, V domains shown)
# VH: QVTLKESGPVLVKPTETLTLTCTVSGFSSTTYGVHWVRQPPGKALEWLGVIWAGGSTNYNAALMSRLTISKDTSKSQVVLTMTNMDPVDTATYYCATQYHYPFAYWGQGTLVTVSS
# VL: DIQMTQSPSSLSASVGDRVTITCKASENVGIYVSWYQQKPGKAPKLMIYGASNRNTGVPSRFSGSGSGTDFTLTISSLQPEDFATYYCGQSYSYPLTFGGGTKVEIK
# B2: Hu1A-7H10 VH1/VL2 (antibody, V domains shown)
# VH: B1 VH
# VL: B1 VL with G68A
# notes: Humanized antibody
# B3: Hu1A-7H10 VH2/VL2 (antibody, V domains shown)
# VH: B1 VH with T73N
# VL: B1 VL with G68A
# notes: Humanized antibody
# B4: Hu1A-7H10 VH2/VL1 (antibody, V domains shown)
# VH: B1 VH with T73N
# VL: B1 VL
# notes: Humanized antibody
# B5: mh1A-7H10_VH1/VL (antibody, V domains shown)
# VH: QVQLKESGPVLVAPSQSLSITCSVSGFSSTTYGVHWVRQPPGQGLEWLGVIWAGGSTNYNAALMSRLSISKDNSKSQVFLKMNSLQTDDTAMYYCATQYHYPFAYWGQGTLVTVSA
# VL: NIVMTQSPKSMSMSVGERVTLSCKASENVGIYVSWYQQKPEQSPKLMIYGASNRNTGVPDRFTGSGSATDFTLTISSVQAEDLADYYCGQSYSYPLTFGAGTKLELK
# B6: mh5A-5E11_VH7/VL (antibody, V domains shown)
# VH: QVQLQQSGAELVRPGSSVKISCKASGYAFSDYWMNWVKQRPGQGLEWIGQIYPGSGDTNYNAKFKGKGTLTADKSSSTAYMQLNSLTSEDSAVYFCARERDYDVAMDYWGQGTSVTVSS
# VL: DIQMTQSPSSLSASLGGKVTITCKASQDINKYIAWFQHKPGKGPRLVIHYTSILQPGIPSRFSGVGSGRDYSFSIRNLEPEDIATYYCLQYDNLPWTFGGGTKLEIK
# B7: Hu5A-5E11 VH1/VL2 (antibody, V domains shown)
# VH: QVQLVQSGAEVKKPGSSVKVSCKASGYAFSDYWMNWVRQAPGQGLEWIGQIYPGSGDTNYNAKFKGKGTITADKSTSTAYMELSSLRSEDTAVYYCARERDYDVAMDYWGQGTTVTVSS
# VL: DIQMTQSPSSLSASVGDRVTITCKASQDINKYIAWFQQKPGKAPKLVIHYTSILQPGVPSRFSGVGSGTDYTFTISSLQPEDIATYYCLQYDNLPWTFGGGTKVEIK
# notes: Humanized antibody
# B8: Hu5A-5E11 VH2/VL2 (antibody, V domains shown)
# VH: B7 VH with I70L
# VL: B7 VL
# notes: Humanized antibody
# B9: Hu5A-5E11 VH2/VL1 (antibody, V domains shown)
# VH: B7 VH with I70L
# VL: B7 VL with V65S
# notes: Humanized antibody
# B10: 5A-5E11 (antibody, V domains shown)
# VH: B6 VH with S55D, A62G
# VL: B6 VL
# B11: 1A-7H10 (antibody, V domains shown)
# VH: B5 VH with A61S
# VL: B5 VL
# B12: 4A-2F7 (antibody, V domains shown)
# VH: QVTLKESGPGILKPSQTLSLTCSFSGFSLSTSGMGVDWIRQPSGKGLEWLAHIWWDDDKYYNPSLKSQLTISKDTSRNQVFLKITSVDTADTATYYCARSYGYDMDYYAMDYWGQGTSVTVSS
# VL: DIQMTQSPSSLSASLGERVSLTCRASQEISGYLSWLQQKPDGTIKRLIYAASTLDSGVPKRFSGSRSGSDYSLTISSLESEDFADYYCLQYASYPPWTFGGGTKLEIK
# B13: 028-8-12 (antibody, V domains shown)
# VH: EVQLLESGGGLVQPGGSLRLSCAASGFTFSELSMSWVRQAPGKGLEWVSAISGSGGSTYYADSVKGRFTISRDNSKNTLYLQMNSLRAEDTAVYYCAREGGRLEPYYYYYAMDVWGQGTPVTVSS
# VL: DIQMTQSPSSLSASVGDRVTITCRASQSISDNLHWYQQKPGKAPKLLIYDASNLESGVPSRFSGSGSGTDFTLTINSLQPEDFATYYCQQYYSTPLTFGQGTKLEIK
# notes: Unmodified human antibody obtained by the human ADLib technique; also called ADLib#028-08-12; ADLib #028-8-12
# B14: Hu4A-2F7 VH1/VL1 (antibody, V domains shown)
# VH: QVTLKESGPALVKPTQTLTLTCTFSGFSLSTSGMGVDWIRQPPGKALEWLAHIWWDDDKYYNPSLKSQLTISKDTSKNQVVLTMTNMDPVDTATYYCARSYGYDMDYYAMDYWGQGTTVTVSS
# VL: DIQMTQSPSSLSASVGDRVTITCRASQEISGYLSWLQQKPGKAPKRLIYAASTLSSGVPSRFSGSGSGTDFTLTISSLQPEDFATYYCLQYASYPPWTFGGGTKVEIK
# B15: Hu4A-2F7 VH2/VL2 (antibody, V domains shown)
# VH: B14 VH with A46G
# VL: B14 VL with F71Y
# notes: Humanized antibody
# B16: Hu4A-2F7 VH1/VL2 (antibody, V domains shown)
# VH: B14 VH
# VL: B14 VL with F71Y
# notes: Humanized antibody
# B17: Hu4A-2F7 VH2/VL1 (antibody, V domains shown)
# VH: B14 VH with A46G
# VL: B14 VL
# notes: Humanized antibody
# B18: mh4A-2F7_VH/VL1 (antibody, V domains shown)
# VH: B12 VH
# VL: B12 VL with D55S
# B19: ADLib#028-8-12_VH1/VL1 (antibody, V domains shown)
# VH: B13 VH with D62S
# VL: B13 VL with N76S
# notes: Amino acid-modified human antibody; also called modified human antibody 028-8-12
# Target: T1, human CXCL1 protein
# Experiment: antigen-immobilized ELISA, HuCXCL1 on the plate, absorbance (upper left panel)
row,EC50 (read off the curve) [µg/mL],Binder
1,~0.02,B1
2,~0.02,B2
3,~0.02,B3
4,~0.02,B4
5,~0.02,B5

# Target: T1, human CXCL1 protein
# Experiment: antigen-immobilized ELISA, HuCXCL1 on the plate, absorbance (lower left panel)
row,EC50 (read off the curve) [µg/mL],Binder
1,~0.02,B6
2,~0.02,B7
3,~0.02,B8
4,~0.02,B9

# Target: T1, human CXCL1 protein
# Experiment: cell-based or functional assay
row,"HuCXCL1 neutralizing activity EC50 (nM), Ca^2+ Flux assay [nM]",Binder
1,3.96,B10
2,6.24,B11
3,4.8,B12
4,5.73,B13

# Target: T1, human CXCL1 protein
# Experiment: antigen-immobilized ELISA, HuCXCL1 on the plate, absorbance (upper right panel; chimeric label printed mh4A-7H10, taken as the 4A-2F7 panel)
row,EC50 (read off the curve) [µg/mL],Binder
1,~0.02,B14
2,~0.02,B15
3,~0.02,B16
4,~0.02,B17

# Target: T1, human CXCL1 protein
# Experiment: antigen-immobilized ELISA, HuCXCL1 on the plate, absorbance (upper right panel; label printed mh4A-7H10, taken as the 4A-2F7 panel)
row,EC50 (read off the curve) [µg/mL],Binder
1,~0.02,B18

# Target: T1, human CXCL1 protein
# Experiment: antigen-immobilized ELISA, HuCXCL1 on the plate, absorbance (lower right panel)
row,EC50 (read off the curve) [µg/mL],Binder
1,~0.04,B13
2,~0.04,B19
